In publication PMC10450164 (Nucleic Acids Research, 2023):

Key:
SEC = target: the molecule itself; assay: SEC
crystal structure = target: the molecule itself; assay: crystal structure

B1: TFAP2A DBD-HSH tandem domain (aa 203-420) (domain or fragment)
chain: not shown
- stoichiometry N (SEC): 2

B2: TFAP2B DBD-HSH tandem domain (aa 219-457) (domain or fragment)
chain: not shown
- binding result (crystal structure): binds

B3: TFAP2A HSH domain (aa 279-411) (domain or fragment, human, UniProt P05549 279-411, looked up)
chain: GRRKAANVTLLTSLVEGEAVHLARDFGYVCETEFPAKAVAEFLNRQHSDPNEQVTRKNMLLATKQICKEFTDLLAQDRSPLGNSRPNPILEPGIQSCLTHFNLISHGFGSPAVCAAVTALQNYLTEALKAMDK
- stoichiometry N (SEC): 2
